Patent US12116698
Where no end group is shown, it is not given here. [ ]: non-standard residue; d: D form. fluorescent label = not defined here; Dap = NC[C@H](N)C(=O)O; Cm = not defined here

B1: W1 (peptide)
peptide: ACHPVSGQKCGGG[Dap](fluorescent label)
modifications: not fully specified (residues 2, 10); cysteine pairing not given here; reading uncertain; also: Cm code not defined, fluorescent label not named
B2: W2 (peptide)
peptide: ACLNSSQPSCGGG[Dap](fluorescent label)
modifications: not fully specified (residues 2, 10); cysteine pairing not given here; reading uncertain; also: Cm code not defined, fluorescent label not named

How the values were obtained:
Streptavidin, P22629 = experiment: fluorescence intensity of streptavidin-coated beads at varied peptide concentrations, hyperbola fit
Chain of Streptavidin, P22629 (P22629 37-163 limits assumed): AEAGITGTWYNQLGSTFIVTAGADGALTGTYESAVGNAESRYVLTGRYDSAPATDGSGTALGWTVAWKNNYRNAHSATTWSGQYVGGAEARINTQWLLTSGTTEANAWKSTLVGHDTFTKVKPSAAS

[1] = molecular target: T1, sortase A (SrtA) (S. aureus), Q2FV99; experiment: mean fluorescence intensity of SrtA-coated beads against peptide concentration, curve fit
T1 chain: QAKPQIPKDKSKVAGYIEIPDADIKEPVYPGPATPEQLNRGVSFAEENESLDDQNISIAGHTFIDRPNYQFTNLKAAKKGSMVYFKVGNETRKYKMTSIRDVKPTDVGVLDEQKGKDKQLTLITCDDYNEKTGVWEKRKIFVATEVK

[2] = molecular target: T1, sortase A (SrtA) (S. aureus), Q2FV99; experiment: fluorescence polarization (anisotropy), SrtA titrated into peptide solution

Binder	Kd (Streptavidin, P22629)	Kd [1]	Kd [2]
A[Cm]TPRSANY[Cm]GGG[Dap](fluorescent label) (not fully specified; reading uncertain; also: fluorescent label not named) [SA1]	6 µM	–	–
B1	–	14 µM	–
B2	–	14 µM	12 µM
A[Cm]DGRPDRA[Cm]GGG[Dap](fluorescent label) (not fully specified; reading uncertain; also: fluorescent label not named) [SA2]	9 µM	–	–
